Values quoted from earlier work in paper PMC5081098.

Molecular target: CCL21 (Homo sapiens) (UniProt O00585)
UniProt O00585, sequence (O00585 24-134): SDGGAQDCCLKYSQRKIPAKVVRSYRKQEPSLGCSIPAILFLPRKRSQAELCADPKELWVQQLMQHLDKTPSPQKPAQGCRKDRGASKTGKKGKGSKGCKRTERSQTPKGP

Kd: 70 nM
Substance: podoplanin (from UniProt Q86YL7)
